The assay deals with Trypanosoma cruzi farnesyl pyrophosphate synthase (Trypanosoma cruzi). Put plainly: dynamic light scattering; stock solution of tcFPPS thawed from -80°C directly before analysis; Zetasizer Ultra; distribution by volume analysis; monomer to dimer.

One may read the stoichiometry N as a count of units in the complex or per binding partner.

For the substance “Trypanosoma cruzi farnesyl pyrophosphate synthase (enzyme)”, the stoichiometry N came to 2.

Values taken from publication PMC7096706.
